Among the data in PMC3399765 (2011) are Kd values, retold here.

One may read the Kd as the equilibrium constant for the complex coming apart.

For the assay, the target named is SMB20 peptide (Homo sapiens, UniProt P14678). The assay is described as follows: ITC. In general terms: In ITC the heat of successive injections is recorded.

B1: FBP21 WW domains (protein)
chain: DPSKGRWVEGITSEGYHYYYDLISGASQWEKPEGFQGDLKKTAVKTVWVEGLSEDGFTYYYNTETGESRWEKPDD
For the molecule B1, binding was put at a Kd of 16.4 µM.
